Source: article doi:10.1101/2025.09.29.679341 (bioRxiv, 2025)

Target: the molecule itself
Experiment: cryo-EM structure

B1: truncated β3-SBP (GABAA receptor β3 subunit, M3-M4 loop replaced by SQPARAA), from Expi293F cells (receptor)
chain: QSVNDPGNMSFVKETVDKLLKGYDIRLRPDFGGPPVCVGMNIDIASIDMVSEVNMDYTLTMYFQQYWRDKRLAYSGIPLNLTLDNRVADQLWVPDTYFLNDKKSFVHGVTVKNRMIRLHPDGTVLYGLRITTTAACMMDLRRYPLDEQNCTLEIESYGYTTDDIEFYWRGGDKAVTGVERIELPQFSIVEHRLVSRNVVFATGAYPRLSLSFRLKRNIGYFILQTYMPSILITILSWVSFWINYDASAARVALGITTVLTMTTINTHLRETLPKIPYVKAIDMYLMGCFVFVFLALLEYAFVNYIFFSQPARAAAIDRWSRIVFPFTFSLFNLVYWLYYVN
For B1, which “stoichiometry N” value is on record?
Its value is 5.
